Data taken from patent US20240018237A1 (SICHUAN KELUN BIOTECH BIOPHARMACEUTICAL, published 2024).
Each block holds one binder with its values, some of them ahead of it.

What was measured:
[1] = biological target: human ROR1 (full-length, on the cell surface) (human) (UniProt Q01973); experiment: flow cytometry, Ba/F3-ROR1 cells (Table 5-3)
[2] = biological target: human ROR1 (full-length, on the cell surface) (human) (UniProt Q01973); experiment: flow cytometry, A549 cells; average of two measurements
[3] = biological target: human ROR1 (full-length, on the cell surface) (human) (UniProt Q01973); experiment: cell-based or functional assay
[4] = biological target: human ROR1 (full-length, on the cell surface) (human) (UniProt Q01973); experiment: flow cytometry, A549 cells (Table 5-1A)
[5] = biological target: human ROR1 (full-length, on the cell surface) (human) (UniProt Q01973); experiment: flow cytometry, Jeko-1 cells (Table 5-1A)
[6] = biological target: human ROR1 (full-length, on the cell surface) (human) (UniProt Q01973); experiment: flow cytometry, HT-29 cells (Table 5-3)
[7] = biological target: human ROR1 (full-length, on the cell surface) (human) (UniProt Q01973); experiment: flow cytometry, Ba/F3-ROR1 cells; average of two measurements
[8] = biological target: human ROR1 (full-length, on the cell surface) (human) (UniProt Q01973); experiment: flow cytometry, Ba/F3-ROR1 cells (Table 5-1A)
[9] = biological target: human ROR1 ECD protein (human) (UniProt Q01973); experiment: BLI (Octet), antibody on AHC sensor, ROR1 ECD in solution; average of two measurements
human ROR1 ECD protein (human), sequence (Q01973 30-406): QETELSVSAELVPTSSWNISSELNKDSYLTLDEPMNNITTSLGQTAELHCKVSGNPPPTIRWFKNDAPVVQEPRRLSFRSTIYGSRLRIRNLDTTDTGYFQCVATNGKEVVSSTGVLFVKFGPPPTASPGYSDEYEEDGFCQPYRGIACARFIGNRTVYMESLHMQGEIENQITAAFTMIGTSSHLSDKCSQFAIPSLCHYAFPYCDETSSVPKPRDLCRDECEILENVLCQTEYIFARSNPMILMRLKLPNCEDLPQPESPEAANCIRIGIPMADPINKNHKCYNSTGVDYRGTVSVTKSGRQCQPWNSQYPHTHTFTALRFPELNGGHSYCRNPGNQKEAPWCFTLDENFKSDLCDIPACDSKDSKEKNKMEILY

[10] = biological target: human ROR1 (full-length, on the cell surface) (human) (UniProt Q01973); experiment: flow cytometry, Jeko-1 cells (Table 5-1B)
[11] = biological target: human ROR1 (full-length, on the cell surface) (human) (UniProt Q01973); experiment: flow cytometry, Jeko-1 cells (Table 5-2)
[12] = biological target: human ROR1 (full-length, on the cell surface) (human) (UniProt Q01973); experiment: flow cytometry, A549 cells (Table 5-2)
[13] = biological target: human ROR1 (full-length, on the cell surface) (human) (UniProt Q01973); experiment: flow cytometry on Ba/F3-ROR1 cells, MFI against antibody concentration
[14] = biological target: human ROR1 (full-length, on the cell surface) (human) (UniProt Q01973); experiment: flow cytometry, Jeko-1 cells (Table 5-3)
[15] = biological target: human ROR1 (full-length, on the cell surface) (human) (UniProt Q01973); experiment: flow cytometry, Ba/F3-ROR1 cells (Table 5-1B)
[16] = biological target: human ROR1 (full-length, on the cell surface) (human) (UniProt Q01973); experiment: flow cytometry, Jeko-1 cells; average of two measurements
[17] = biological target: human ROR1 ECD protein (human) (UniProt Q01973); experiment: BLI (Octet), antibody on AHC sensor, ROR1 ECD in solution; average of three determinations
[18] = biological target: human ROR1 (full-length, on the cell surface) (human) (UniProt Q01973); experiment: flow cytometry, A549 cells (Table 5-1B)
[19] = biological target: human ROR1 (full-length, on the cell surface) (human) (UniProt Q01973); experiment: flow cytometry, HT-29 cells; average of two measurements
[20] = biological target: human ROR1 (full-length, on the cell surface) (human) (UniProt Q01973); experiment: flow cytometry on A549 cells, MFI against antibody concentration
[21] = biological target: human ROR1 (full-length, on the cell surface) (human) (UniProt Q01973); experiment: flow cytometry, HT-29 cells (Table 5-2)
[22] = biological target: human ROR1 (full-length, on the cell surface) (human) (UniProt Q01973); experiment: flow cytometry, Ba/F3-ROR1 cells (Table 5-2)
[23] = biological target: human ROR1 (full-length, on the cell surface) (human) (UniProt Q01973); experiment: flow cytometry, HT-29 cells (Table 5-1B)
[24] = biological target: human ROR1 (full-length, on the cell surface) (human) (UniProt Q01973); experiment: flow cytometry on Ba/F3-ROR1 cells, MFI against antibody concentration; remark: listed apart in the source
[25] = biological target: human ROR1 (full-length, on the cell surface) (human) (UniProt Q01973); experiment: flow cytometry, HT-29 cells (Table 5-1A)
[26] = biological target: human ROR1 (full-length, on the cell surface) (human) (UniProt Q01973); experiment: flow cytometry, A549 cells (Table 5-3)
[27] = biological target: T1, human ROR1 (full-length, on the cell surface) (human, UniProt Q01973 30-937); experiment: flow cytometry on Jeko-1 cells, MFI against antibody concentration
T1 construct: whole, on cells; the tumour cell lines carry their own ROR1; also called Ba/F3-ROR1 cells; Jeko-1
T1 sequence (Q01973 30-937): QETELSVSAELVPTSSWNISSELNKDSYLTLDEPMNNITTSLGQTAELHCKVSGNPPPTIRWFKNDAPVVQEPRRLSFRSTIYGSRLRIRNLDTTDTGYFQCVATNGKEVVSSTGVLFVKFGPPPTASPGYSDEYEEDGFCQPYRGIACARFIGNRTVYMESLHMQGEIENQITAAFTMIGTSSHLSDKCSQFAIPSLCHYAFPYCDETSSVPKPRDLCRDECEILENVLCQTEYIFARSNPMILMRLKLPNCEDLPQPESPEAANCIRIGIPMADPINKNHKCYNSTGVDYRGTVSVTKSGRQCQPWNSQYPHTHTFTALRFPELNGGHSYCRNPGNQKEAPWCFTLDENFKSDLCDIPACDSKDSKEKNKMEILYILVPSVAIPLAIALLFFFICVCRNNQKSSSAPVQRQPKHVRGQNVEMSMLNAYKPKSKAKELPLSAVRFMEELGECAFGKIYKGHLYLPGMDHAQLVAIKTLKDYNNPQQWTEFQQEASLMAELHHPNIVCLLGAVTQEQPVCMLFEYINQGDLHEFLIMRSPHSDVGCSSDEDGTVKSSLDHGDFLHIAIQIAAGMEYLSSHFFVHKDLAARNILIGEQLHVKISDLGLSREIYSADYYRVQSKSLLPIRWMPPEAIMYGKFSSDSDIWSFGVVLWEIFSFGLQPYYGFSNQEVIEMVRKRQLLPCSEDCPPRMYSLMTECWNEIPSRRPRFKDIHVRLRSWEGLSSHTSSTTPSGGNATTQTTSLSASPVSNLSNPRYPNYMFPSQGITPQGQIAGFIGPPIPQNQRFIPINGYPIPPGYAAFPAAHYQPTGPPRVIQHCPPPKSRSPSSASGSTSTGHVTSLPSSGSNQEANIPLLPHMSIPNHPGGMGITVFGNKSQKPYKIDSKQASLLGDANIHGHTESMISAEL
From the text: (§1) The affinity of the candidate antibodies to ROR1 on the surface of human cells was detected by flow cytometry. In addition to the Ba/F3-ROR1 overexpression cells, human mantle cell lymphoma cell line Jeko-1 (ATCC, Cat. No.: CRL-3006), human colon cancer cell line HT-29 (ATCC, Cat. No.: HTB-38), human lung cancer cell line A549 (ATCC, Cat. No.: CCL-185) were also used for the binding assay. The anti-human ROR1 antibody UC961 (for sequence, see WO2018237335A1) with mouse or human IgG1 Fc was used as a positive control, and the anti-2,4,6-trinitrophenol antibody (ATCC) with the corresponding mouse or human IgG1 Fc was used as a negative control. Mouse IgG isotype control (Thermo Fisher, Cat. No.: 31903) was also used as a negative control.

[28] = biological target: T1, human ROR1 (full-length, on the cell …); experiment: cell-based or functional assay
[29] = biological target: T1, human ROR1 (full-length, on the cell …); experiment: flow cytometry on A549 cells, MFI against antibody concentration
From the text: as §1

[30] = biological target: T1, human ROR1 (full-length, on the cell …); experiment: flow cytometry on Ba/F3-ROR1 cells, MFI against antibody concentration
From the text: as §1

[31] = biological target: T2, human ROR2 extracellular domain (ECD) protein (human, UniProt Q01974 34-403); experiment: ELISA on coated human ROR2 ECD protein (1 ug/mL), OD at 450 nm
T2 construct: extracellular domain; Bought protein; also called human ROR2 ECD protein; Sino Biologicals 16133-H08H
T2 sequence (Q01974 34-403): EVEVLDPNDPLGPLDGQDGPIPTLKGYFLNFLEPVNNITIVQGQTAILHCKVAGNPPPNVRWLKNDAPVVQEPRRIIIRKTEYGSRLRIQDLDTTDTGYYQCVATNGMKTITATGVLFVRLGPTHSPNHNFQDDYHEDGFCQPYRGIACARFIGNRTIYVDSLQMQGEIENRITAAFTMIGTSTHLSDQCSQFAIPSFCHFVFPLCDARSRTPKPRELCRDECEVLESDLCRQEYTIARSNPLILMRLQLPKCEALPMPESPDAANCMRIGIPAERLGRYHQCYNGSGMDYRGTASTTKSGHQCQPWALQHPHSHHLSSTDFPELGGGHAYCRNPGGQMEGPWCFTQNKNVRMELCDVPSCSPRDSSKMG
Protocol: It was confirmed by ELISA using extracellular domain (ECD) protein of human ROR2 that the binding specificity of the candidate antibodies to human ROR1 was higher than that of human ROR2. The specific method was as follows: 1 μg/mL human ROR2 extracellular domain (ECD) protein (Sino Biologicals, Cat. No.: 16133-H08H) was added in a 96-well ELISA plate (Thermo Fisher, Cat. No.: 5129) at 100 μL/well, for coating overnight at 4° C. 200 μL of washing buffer (1×TBS containing 0.05% Tween-20) was used to wash 3 times, different concentrations of eight purified mouse-anti-human ROR1 candidate antibodies and UC961 were added at 100 μL, incubated at 37° C. for 1 hour, and mouse-anti-human ROR2 antibody (R&D systems, Cat. No.: MAB2064) was used as a positive control. Washing was performed 3 times with 200 μL of washing buffer, 100 μL of anti-human IgG (Rockland Inc, Cat. No. 609-1304) or anti-mouse IgG secondary antibody (Rockland Inc, Cat. No. 610-1304) diluted at a ratio of 1:10000 were added to each well, incubated at 37° C. for 1 hour. Washing was performed 3 times with 200 μL of washing buffer, 100 μL of TMB (Thermo Fisher, Cat. No.: TMBW-1000-01) was added for color development in the dark for 10 minutes, then 100 μL of stop solution (Thermo Fisher, Cat. No.: 13361-100-10) was added to stop the color development, and reading was carried out by microplate reader at 450 nm.

[32] = biological target: T1, human ROR1 (full-length, on the cell …); experiment: flow cytometry on HT29 cells, MFI against antibody concentration
From the text: as §1

human ROR1 (full-length, on the cell surface) (human), sequence (Q01973 30-937): as the sequence (Q01973 30-937) above

EC50 [1]: 1.07 nM
EC50 [2]: 0.277 nM
EC50 [4]: 0.41 nM
EC50 [5]: 0.22 nM
EC50 [6]: 0.37 nM
EC50 [7]: 0.44 nM
EC50 [8]: 0.62 nM
Kd [9]: 15.8 nM
koff [9]: 0.0137 s⁻¹
kon [9]: 981000 M⁻¹ s⁻¹
EC50 [10]: 0.36 nM
EC50 [11]: 0.14 nM
EC50 [12]: 0.46 nM
EC50 (read off the curve) [13]: 0.07 mg/L
EC50 [14]: 0.06 nM
EC50 [15]: 0.3 nM
EC50 [16]: 0.447 nM
Kd [17]: 8.73 nM
koff [17]: 0.0112 s⁻¹
kon [17]: 1.26e+06 M⁻¹ s⁻¹
EC50 [18]: 0.16 nM
EC50 [19]: 0.267 nM
EC50 (read off the curve) [20]: 0.01 mg/L
EC50 [21]: 0.21 nM
EC50 [22]: 0.31 nM
EC50 [23]: 0.2 nM
EC50 (read off the curve) [24]: 0.05 mg/L
EC50 [25]: 0.12 nM
EC50 [26]: 0.21 nM
B1: anti-human ROR1 antibody UC961 (antibody, from another filing, V domains shown)
VH: QVQLQESGPGLVKPSQTLSLTCTVSGYAFTAYNIHWVRQAPGQGLEWMGSFDPYDGGSSYNQKFKDRLTISKDTSKNQVVLTMTNMDPVDTATYYCARGWYYFDYWGHGTLVTVSS
VL: DIVMTQTPLSLPVTPGEPASISCRASKSISKYLAWYQQKPGQAPRLLIYSGSTLQSGIPPRFSGSGYGTDFTLTINNIESEDAAYYFCQQHDESPYTFGEGTKVEIK
EC50 of ADCC killing of Ba/F3-ROR1 cells by NK92MI-mCD16a-hFceRI cells [3]: 0.33 nM

EC50 (read off the curve) [27]: ~0.02 mg/L
activity of inducing internalization on Jeko-1 cells (Mab-ZAP, by IC50), fold over UC961 [28]: 3.8 fold
EC50 (read off the curve) [29]: ~0.03 mg/L
EC50 (read off the curve) [30]: ~0.06 mg/L
binding result [31]: no binding (tested: about 5000 ng/ml)
B2: Murine antibody 3D8.2.3 (antibody, V domains shown)
VH: EVKLVESGGGLVKPGGSLKLSCAASGFTFSSYAMSWVRQTPEKRLEWVASINSGGSTYYPDSVKGRFTISRDNARNILYLQMSSLRSEDTAMYYCARVNYYGYGDYAMDYWGQGTSVTVSS
VL: DIKMTQSPSSMYASLGERVTITCKASQDINSYLSWFQQKPGKSPKTLIYRANRLVDGVPSRFSGSGSGQDYSLTISSLEYEDMGIYYCLQYDEFPYTFGGGTNLEIK
notes: Hybridoma antibody

EC50 (read off the curve) [27]: ~0.03 mg/L
activity of inducing internalization on Jeko-1 cells (Mab-ZAP, by IC50), fold over UC961 [28]: 5.3 fold
EC50 (read off the curve) [32]: ~0.04 mg/L
EC50 (read off the curve) [30]: ~0.06 mg/L
binding result [31]: no binding (tested: about 5000 ng/ml)
B3: Murine antibody 38F8.1.1 (antibody, V domains shown)
VH: EVKLVESGGDLVKPGGSLKLSCTASGFTFSNYAMSWVRQTPEKRLEWVASISSGGPTYYPDSVKGRFTVSRDNARNILYLQMSSLRSEDTAMYYCARGYRYDVNWYFDVWGAGTSVTVSS
VL: DIKMTQSPSSMYASLGERVTITCKASQDINSYLTWFQQKPGKSPKTLIHRANRLVDGVPSRFSGSGSGQDYSLTISSLEYEDMGIYYCLQYDEFPYTFGGGTKLEIK
notes: Hybridoma antibody
